B1: Junctophilin-2 (Mus musculus), Q9ET78 (parent)
chain: MSGGRFDFDDGGAYCGGWEGGKAHGHGLCTGPKGQGEYSGSWNFGFEVAGVYTWPSGNTFEGYWSQGKRHGLGIETKGRWLYKGEWTHGFKGRYGIRQSTNSGAKYEGTWNNGLQDGYGTETYADGGTYQGQFTNGMRHGYGVRQSVPYGMAVVVRSPLRTSLSSLRSEHSNGTVAPDSPAADGPMLPSPPVPRGGFALTLLATAEAARPQGLFTRGTLLGRLRRSESRTSLGSQRSRLSFLKSELSSGASDAASTGSLAEGAEGPDDAAAPFDADIDATTTETYMGEWKNDKRSGFGVSERSSGLRYEGEWLDNLRHGYGRTTLPDGHREEGKYRHNVLVKGTKRRVLPLKSSKVRQKVEHGVEGAQRAAAIARQKAEIAASRTSHAKAKAEAAEQAALAANQESNIARTLAKELAPDFYQPGPEYQKRRLLQEILENSESLLEPPERGLGTGLPERPRESPQLHERETPQPEGGPPSPAGTPPQPKRPRPGASKDGLLSPGSWNGEPGGEGSRPATPSDGAGRRSPARPASEHMAIEALQPPPAPSQEPEVAMYRGYHSYAVRTGPPEPPPLEDEQEPEPEPEPEVRRSDSAPPSPVSATVPEEEPPAPRSPVPAKQATLEPKPIVPKAEPKAKARKTEARGLSKAGAKKKGRKEVAQAKEAEVEVEEVPNTVLICMVILLNIGLAILFVHLLT
partner: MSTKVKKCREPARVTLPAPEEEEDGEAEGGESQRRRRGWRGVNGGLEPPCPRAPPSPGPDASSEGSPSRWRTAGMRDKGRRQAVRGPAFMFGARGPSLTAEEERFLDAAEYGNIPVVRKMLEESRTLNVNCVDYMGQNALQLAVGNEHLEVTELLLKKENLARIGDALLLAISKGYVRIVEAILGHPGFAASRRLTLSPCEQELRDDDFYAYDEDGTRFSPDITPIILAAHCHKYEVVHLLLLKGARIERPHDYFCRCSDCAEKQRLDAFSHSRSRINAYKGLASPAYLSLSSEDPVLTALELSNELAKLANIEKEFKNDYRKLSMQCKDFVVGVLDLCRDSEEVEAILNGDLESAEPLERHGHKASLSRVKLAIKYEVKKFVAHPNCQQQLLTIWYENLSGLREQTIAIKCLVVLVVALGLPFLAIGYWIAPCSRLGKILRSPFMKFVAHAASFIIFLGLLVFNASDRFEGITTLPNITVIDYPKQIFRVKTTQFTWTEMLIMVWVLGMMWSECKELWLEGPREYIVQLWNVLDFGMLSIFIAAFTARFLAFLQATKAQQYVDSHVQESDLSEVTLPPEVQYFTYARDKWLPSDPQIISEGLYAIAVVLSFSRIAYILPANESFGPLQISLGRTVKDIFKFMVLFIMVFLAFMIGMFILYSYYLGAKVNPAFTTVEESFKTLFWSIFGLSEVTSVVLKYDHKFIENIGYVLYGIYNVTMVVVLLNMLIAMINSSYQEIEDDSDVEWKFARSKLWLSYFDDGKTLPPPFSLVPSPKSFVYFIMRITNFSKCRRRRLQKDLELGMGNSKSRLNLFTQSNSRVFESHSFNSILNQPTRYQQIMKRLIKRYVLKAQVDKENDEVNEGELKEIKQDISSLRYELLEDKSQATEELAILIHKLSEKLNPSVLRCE

Variants of: B1
Conditions: with trpc3_mouse Trpc3, Q9QZC1

| effect of a mutation on the interaction | Variant |
| --- | --- |
| decreasing interaction | S165F |
